This is an account of results in US20250320478.

Assay in all cases: cell_activity
Data set [1] deals with ZFP3:G:D3A (synthetic construct). The following applies: triple combination with ZFP8:G:K and ZFP6:G:hD3L; not tested alone.
In data set [2] the test system is ZFP6:G:hD3L (synthetic construct). The following applies: triple combination with ZFP8:G:K and ZFP3:G:D3A; not tested alone.
Data set [3] concerns ZFP8 (Pcsk9 ZFP, KRAB/DNMT3 effector fusions) (synthetic construct). The following applies: upper end of 1.5-17 range for bi-partite ZFP8 ETRs in Hepa 1-6 Pcsk9tdTomato; tri-partite 2-8 fold; binding inferred from silencing.

Sequence of ZFP3:G:D3A (synthetic construct) (chain, as listed by the source): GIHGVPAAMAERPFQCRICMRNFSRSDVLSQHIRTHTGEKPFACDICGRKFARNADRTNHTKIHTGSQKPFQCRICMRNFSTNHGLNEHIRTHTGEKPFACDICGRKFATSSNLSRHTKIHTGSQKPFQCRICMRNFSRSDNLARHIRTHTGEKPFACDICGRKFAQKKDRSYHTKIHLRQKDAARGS
Sequence of ZFP6:G:hD3L (synthetic construct) (chain, as listed by the source): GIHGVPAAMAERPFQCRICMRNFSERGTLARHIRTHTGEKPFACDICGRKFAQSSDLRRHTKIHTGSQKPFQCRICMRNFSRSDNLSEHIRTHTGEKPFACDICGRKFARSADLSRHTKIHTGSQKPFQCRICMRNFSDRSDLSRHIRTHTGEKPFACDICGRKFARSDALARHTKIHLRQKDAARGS

In the case of “Pcsk9 promoter CpG island, ZFP3 target site”, the activity (fold silencing vs ZFPoff) in data set [1] worked out at 15. As to “Pcsk9 promoter CpG island, ZFP6 target site”, the activity (fold silencing vs ZFPoff) in data set [2] amounted to 15. Regarding “Pcsk9 promoter CpG island, ZFP8 target site”, in data set [3], the activity (fold silencing vs ZFPoff) was 17.
